Patent US20050101770A1 (SCHERING, published 2005)
Positions count from the first letter of the chain named.

B1: recombinant mouse IL-10 (mIL-10) (ligand, UniProt P18893 19-178, looked up)
chain: SRGQYSREDNNCTHFPVGQSHMLLELRTAFSQVKTFFQTKDQLDNILLTDSLMQDFKGYLGCQALSEMIQFYLVEVMPQAEKHGPEIKEHLNSLGEKLKTLRMRLRRCHRFLPCENKSKAVEQVKSDFNKLQDQGVYKAMNEFDIFINCIEAYMMIKMKS
B2: Monoclonal humanized antibody SCH 708980 to recombinant human IL-10 (humanized 12G8) (antibody, human IgG1, kappa, V domains shown)
VH: QVQLVESGGGVVQPGRSLRLSCAASGFTFSDYHMAWVRQAPGKGLEWVASITLDATYTYYRDSVRGRFTISRDNSKNTLYLQMNSLRAEDTAVYYCARHRGFSVWLDYWGQGTLVTVSS
VL: DIQMTQSPSSLSASVGDRVTITCKTSQNIFENLAWYQQKPGKAPKLLIYNASPLQAGVPSRFSGSGSGTDFTLTISSLQPEDFATYYCHQYYSGYTFGPGTKLELKR
notes: also called h12G8; hu12G8
B3: recombinant cyno IL-10 (cyno IL-10) (ligand, UniProt P79338 19-178, looked up)
chain: SPGQGTQSENSCTRFPGNLPHMLRDLRDAFSRVKTFFQMKDQLDNILLKESLLEDFKGYLGCQALSEMIQFYLEEVMPQAENHDPDIKEHVNSLGENLKTLRLRLRRCHRFLPCENKSKAVEQVKNAFSKLQEKGVYKAMSEFDIFINYIEAYMTMKIRN
B4: recombinant human IL-10 dimer (hIL-10-dimer) (ligand, UniProt P22301 19-178, looked up)
chain: B3 chain with R14H, H21N, I46L, H83Q, E89A, S129N, V136I
notes: also called hu IL-10
B5: rat anti hIL-10 mAb 12G8 (r12G8): JES3.12G8 (antibody, V domains shown)
VH: EVQLVESGGGLVRPGGSLRLSCTASGFTFSDYHMAWVRQSPDKGLEWVASITLDATYTYYRDSVRGRFTISRNNAKTTLYLQMDSLRSEDTATFYCTRHRGFSVWLDYWGQGVMVTVSS
VL: DIQMTQSPSLLSASVGDRVTLNCKTSQNIFENLAWYQQKLREPPKLLIFNASPLQAGIPSRFSGSGSGTDFTLTITSLQPEDVATYFCHQYYSGYTFGPGTKLELKR
notes: Rat monoclonal antibody; also called Rat 12G8; JES.12G8

How the values were obtained:
[1] = molecular target: B2; experiment: IGEN competitive ECLA, mean ± S.D. (n); summary of Table 15
Text: (§1) Materials used. 96 well Polypropylene plates (Costar, Cat. No. 3365, Fisher Sci. Cat. No. 07200697); assay buffer of 0.1% BSA, 0.05% tween 20, PBS pH 7.5; paramagnetic beads (Streptavidin-Dynabeads, Igen, Inc., Cat. No. 110029); recombinant human IL-10 dimer (hIL-10-dimer); recombinant human IL-10-monomer (hlL-10-mono); recombinant mouse IL-10 (mIL-10); recombinant cyno IL-10 (cyno IL-10); and recombinant hIL-10Ra (hL-10Ra): FLAG-tagged protein. Ori-Tag labeled anti-FLAG M2 monoclonal antibodies were prepared using Ori-Tag-NHS ester (Igen, Inc. Cat. No. 110034) according to manufacturer's protocol (OriTag label: IgG challenge ratio 8:1). Anti-Flag M2 monoclonal antibodies were purchased from Sigma (Cat. No. F3165). Ori-Tag labeled anti hIgG 1A2 monoclonal antibodies were prepared as above using rat anti hIgG monoclonal antibodies. Ori-Tag labeled anti rat IgG antibodies were prepared as above from polyclonal Goat anti rat IgG (H+L) antibodies (Jackson Immunoresearch Laboratories, Inc. PA, Cat. No. 112-005-143). Biotinylated recombinant human IL-10 (hIL-10-biotin) was prepared using TFP-PEO-biotin (Pierce, Cat. No. 21219) according to manufacturer's recommendations (Pierce bulletin 0874). The rat anti hIL-10 mAb 12G8 (r12G8): JES3.12G8 and humanized anti hIL-10 mAb 12G8 (hl2G8-1) were prepared as described herein.
(§2) Protocol. ⅓ serial dilutions in 50 microliters of the assay buffer were made in 96-well microtiter plate for all unlabeled IL-10 preparations (mIL-10, cyno IL-10, hIL-10 dimer, hIL-10 mono) starting with 3 μg/ml in the first well. All samples were run in duplicates. 50 μl of hIL-10-biotin at 25 ng/ml was added to each well, followed by the addition of either hIL-10Ra (50 μl at 100 ng/ml) or […] (50 μl at 10 ng/ml). 50 microliters of Ori-Tag conjugated secondary antibodies was added to each well at 500 ng/ml conc. For hIL-10Ra, r12G8 and h12G8 the following Ori-Tag conjugated were used accordingly: anti-FLAG M2-OriTag, anti-rat IgG-OriTag and anti hIgG 1A2-OriTag. Finally to each well 50 μl of Streptavidin-Dynabeads at 0.1 mg/ml was added. After a one hour incubation at room temperature the plate was processed by the M-series M8/384 analyzer. Percent inhibition of the signal by unlabeled IL-10 preparations was calculated relative to the control samples. To plot the data and calculate IC₅₀ the GraphPad Prism Software was used.

[2] = molecular target: B5; experiment: as above
Text: as §1, §2

[3] = molecular target: B2; experiment: competitive ECLA (IGEN): unlabeled IL-10 varied, competitor hIL-10-biotin
Text: as §1, §2

[4] = molecular target: B5; experiment: as above
Text: as §1, §2

[5] = molecular target: T1, recombinant hIL-10Ra (hIL-10Ra): FLAG-tagged protein (human, UniProt Q13651 22-235); experiment: competitive ECLA (IGEN): unlabeled IL-10 against hIL-10-biotin for FLAG-tagged hIL-10Ra
T1 construct: The order of the receptor part and the FLAG tag is unknown; also called huIL-10Ra; not shown: FLAG tag
T1 sequence (looked up): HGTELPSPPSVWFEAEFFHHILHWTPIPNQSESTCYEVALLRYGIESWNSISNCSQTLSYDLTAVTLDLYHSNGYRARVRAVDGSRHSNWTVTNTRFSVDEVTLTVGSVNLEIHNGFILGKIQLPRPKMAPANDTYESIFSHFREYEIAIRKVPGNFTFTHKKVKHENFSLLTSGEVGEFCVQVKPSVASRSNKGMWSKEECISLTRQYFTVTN
Text: as §1, with “Biotinylated recombinant human IL-10 (hIL-10-biotin) was prepared using TFP-PEO-biotin (Pierce, Cat. No. 21219) according to manufacturer's recommendations (Pierce bulletin 0874). The rat anti hIL-10 mAb 12G8 (r12G8): JES3.12G8 and humanized anti hIL-10 mAb 12G8 (hl2G8-1) were prepared as described herein.” left out
Protocol. ⅓ serial dilutions in 50 microliters of the assay buffer were made in 96-well microtiter plate for all unlabeled IL-10 preparations (mIL-10, cyno IL-10, hIL-10 dimer, hIL-10 mono) starting with 3 μg/ml in the first well. […] Percent inhibition of the signal by unlabeled IL-10 preparations was calculated relative to the control samples. […]

[6] = molecular target: B4; experiment: KinExA, solution equilibrium, hIL-10 run #1
Experimental: (§3) The equilibrium dissociation constant (Kd) for humanized antibody SCH 708980 was determined using KinExA 3000 (Sapidyne Instruments Inc.). KinExA uses the principle of the Kinetic Exclusion Assay method based on measuring the concentration of uncomplexed antibody in a mixture of antibody, antigen and antibody-antigen complex. The concentration of free antibody was measured by exposing the mixture to a solid-phase immobilized antigen for a very brief period of time. In practice, this was accomplished by flowing the solution phase antigen-antibody mixture past antigen coated particles trapped in a flow cell. Data generated by the instrument were analyzed using custom software. Equilibrium constants were calculated using a mathematical theory based on the following assumptions: [0139] 1. The binding follows the reversible binding equation for equilibrium: Kₒₙ[Ab][Ag]=Koff[AbAg] [0140] 2. Antibody and antigen bind 1:1, and total antibody equals antigen-antibody complex plus free antibody [0141] 3. Instrument signal is linearly related to free antibody concentration
(§4) Experimental conditions: All runs were done in duplicate. For hIL-10 runs the following conditions were used: [0145] Sample volume: 1.5 ml [0146] Sample flow rate: 0.25 ml/min [0147] Label volume: 0.5 ml [0148] Label flow rate: 0.25 ml/min [0149] mAb conc.: 0.1 nM [0150] Highest Ag (hlL-10) conc.: 4.0 nM [0151] […]

[7] = molecular target: B4; experiment: KinExA, solution equilibrium, hIL-10 run #2
Experimental: as §3, §4

[8] = molecular target: B4; experiment: KinExA, solution equilibrium, hIL-10 run #3
Experimental: as §3, §4

[9] = molecular target: B1; experiment: KinExA, solution equilibrium, mIL-10 run #1
Experimental: as §3
(§5) For mIL-10 runs the following conditions were used: [0154] […] Sample flow rate: 0.25 ml/min [0156] Label volume: 0.5 ml [0157] Label flow rate: […] [0158] mAb conc.: 1 nM [0159] Highest Ag (mIL-10) conc.: 50 nM [0160] Lowest Ag (mIL-10) conc.: 48.8 pM […]

[10] = molecular target: B1; experiment: KinExA, solution equilibrium, mIL-10 run #2
Experimental: as §3, §5

[11] = molecular target: B1; experiment: KinExA, solution equilibrium, mIL-10 run #3
Experimental: as §3, §5

[12] = molecular target: B4; experiment: Biacore, mean ± S.D. (n); format not described
[13] = molecular target: B1; experiment: Biacore, mean ± S.D. (n); format not described
[14] = molecular target: B3; experiment: Biacore, mean ± S.D. (n); format not described
[15] = molecular target: B3; experiment: KinExA, solution equilibrium, cyno IL-10 run #1
Experimental: as §3
(§6) For cyno IL-10 runs the following conditions were used: [0163] Sample volume: 2 ml [0164] Sample flow rate: 0.25 ml/min [0165] Label volume: 1 ml [0166] Label flow rate: 0.25 ml/min [0167] mAb conc.: 0.1 nM [0168] Highest Ag (mIL-10) conc.: 5.0 nM [0169] Lowest Ag (mIL-10) conc.: 4.88 pM […]

[16] = molecular target: B3; experiment: KinExA, solution equilibrium, cyno IL-10 run #2
Experimental: as §3, §6

[17] = molecular target: B3; experiment: KinExA, solution equilibrium, cyno IL-10 run #3
Experimental: as §3, §6

[18] = molecular target: B4; experiment: KinExA, mean ± S.D. (n) of the runs of Table 14
[19] = molecular target: B1; experiment: KinExA, mean ± S.D. (n) of the runs of Table 14
[20] = molecular target: B3; experiment: KinExA, mean ± S.D. (n) of the runs of Table 14
[21] = molecular target: T1, recombinant hIL-10Ra (hIL-10Ra): …; experiment: competitive ECLA (IGEN): unlabeled IL-10 varied, competitor hIL-10-biotin
Text: as §1, §2

[22] = molecular target: B4; experiment: KinExA, mean (n)

Binder	IC50 [1]	IC50 [2]	IC50 [3]	IC50 [4]	Kd [12]	Kd [13]	Kd [14]	IC50 [21]	also measured
B1	53 nM	38 nM	53 nM	37.9 nM	–	–	–	–	binding result [5]: no binding (tested: unlabeled IL-10 titrated from 3 µg/ml)
B2	–	–	–	–	0.511 nM	8.6 nM	0.659 nM	–	Kd [6]: 0.0274 nM; Kd [7]: 0.0323 nM; Kd [8]: 0.0155 nM; Kd [9]: 0.282 nM; Kd [10]: 0.267 nM; Kd [11]: 0.308 nM; Kd [15]: 0.0397 nM; Kd [16]: 0.0966 nM; Kd [17]: 0.0925 nM; Kd [18]: 0.025 nM; Kd [19]: 0.286 nM; Kd [20]: 0.076 nM
B3	4.9 nM	6.6 nM	4.9 nM	6.6 nM	–	–	–	17.6 nM	–
B4	4 nM	4.7 nM	4 nM	4.7 nM	–	–	–	2.9 nM	–
B5	–	–	–	–	0.277 nM	7.4 nM	0.33 nM	–	Kd [22]: 0.023 nM
